Experimental data as given in patent US20050123911A1, “Method of mass spectrometry” (priority 2001, published 2005).
Values joined by “and” are separate entries in the source; they are usually repeats but may differ in a detail not shown here. Equal values may be shown once. Gly∗ = not defined here; Ac∗ = not defined here

Assays:
Trypsin = biological target: T1, Trypsin (Bos taurus, UniProt P00760); assay: Incubation of single DiMaS peptides with trypsin, LC-MS analysis; assay type: biochemical; conditions: for Cleaved sequence following incubation with trypsin (FIG. 13): mass spectrum; for Cleavage site on incubation with Trypsin / Cleaved fragment identified after incubation with Trypsin (Table 1): room temperature, 9 h; for Cleavage site on incubation with Trypsin: aliquot every 2 h, LC-MS; for Cleaved fragment identified after incubation with Trypsin (Table 1): HPLC/MS
T1 construct: purchased Sigma T1426
T1 sequence (P00760 24-246): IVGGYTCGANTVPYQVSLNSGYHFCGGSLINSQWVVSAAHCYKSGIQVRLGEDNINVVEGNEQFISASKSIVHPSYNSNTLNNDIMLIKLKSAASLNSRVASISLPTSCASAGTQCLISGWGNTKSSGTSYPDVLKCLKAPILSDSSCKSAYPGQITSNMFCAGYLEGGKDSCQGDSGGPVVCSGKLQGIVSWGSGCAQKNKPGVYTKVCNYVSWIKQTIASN
Experimental: (§1) The peptide (10 μl of 1 mM in Acetonitrile) was treated with a solution of buffer (50 mM HEPES, 150 mM NaCl and 1 μM Zn^2+, 35 μl), and finally Trypsin was added (5 μl, 2.5 μM). The reaction was allowed to take place at room temperature for 9 h and an aliquot of solution was removed for LC-MS analysis.
Peptides 4 and 10 were incubated with trypsin as described above and then analysed by HPLC/MS to give masses according to Table 1.
Compounds 7(2) and 7(13) (10 μl in Acetonitrile) were treated with a solution of buffer (50 mM HEPES, 150 mM NaCl and 1 μM Zn^2+, 35 μl), and finally Trypsin was added (5 μl, 2.5 μM). The reaction was allowed to take place at room temperature for 9 h and an aliquot of solution was removed for LC-MS analysis every 2 h.

[1] = biological target: T2, neutral endopeptidase (NEP) (Homo sapiens, UniProt P08473); assay: Incubation of DiMaS peptides with NEP, LC-MS analysis; assay type: biochemical; conditions: room temperature, 9 h, HPLC/MS
T2 construct: purchased BioMep
T2 sequence (P08473 whole entry, species assumed): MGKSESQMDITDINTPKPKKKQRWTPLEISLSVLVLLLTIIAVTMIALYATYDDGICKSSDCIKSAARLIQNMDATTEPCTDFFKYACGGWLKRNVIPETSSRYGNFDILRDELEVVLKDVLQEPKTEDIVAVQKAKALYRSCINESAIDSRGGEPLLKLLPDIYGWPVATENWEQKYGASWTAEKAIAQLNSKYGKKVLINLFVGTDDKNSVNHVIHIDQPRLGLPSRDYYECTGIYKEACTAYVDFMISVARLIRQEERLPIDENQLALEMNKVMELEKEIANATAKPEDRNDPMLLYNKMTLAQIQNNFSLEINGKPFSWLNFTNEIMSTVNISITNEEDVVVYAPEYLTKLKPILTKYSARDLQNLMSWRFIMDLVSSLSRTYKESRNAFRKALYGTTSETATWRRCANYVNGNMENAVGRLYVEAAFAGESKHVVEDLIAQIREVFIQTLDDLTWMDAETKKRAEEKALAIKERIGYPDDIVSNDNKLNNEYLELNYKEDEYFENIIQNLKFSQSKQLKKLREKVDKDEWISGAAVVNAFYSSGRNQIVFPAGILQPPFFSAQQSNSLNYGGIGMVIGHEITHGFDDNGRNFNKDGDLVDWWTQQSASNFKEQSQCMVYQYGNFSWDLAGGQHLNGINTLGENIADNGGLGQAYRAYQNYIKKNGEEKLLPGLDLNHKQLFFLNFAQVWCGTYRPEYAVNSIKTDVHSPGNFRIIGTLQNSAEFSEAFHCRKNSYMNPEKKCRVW
Experimental: as §1, with “neutral endopeptidase (NEP)” for “Trypsin”
Peptides 4, 6 and 10 were incubated with NEP as described above and then analysed by HPLC/MS to give masses according to Table 1.

Substance | Cleaved sequence following incubation with trypsin (FIG. 13) (Trypsin) | Cleavage site on incubation with Trypsin (Trypsin) | Cleaved fragment identified after incubation with NEP (Table 1) [1] | Cleaved fragment identified after incubation with Trypsin (Table 1) (Trypsin)
Ac-Gly* Ala Gly Arg Ala Asn Ile Asp Phe Ala Lys(Ac*)-NH2 ({Ac-Gly∗}-AGRANIDFAK(Ac∗)-NH2; reading uncertain; also: isotope labels: Gly* with D2 or H2, Ac* with D3 or H3, printed as Ac-Gly* Ala Gly Arg Ala Asn Ile Asp Phe Ala Lys(Ac*)-NH2) [7(2)] | H2N-Ala-Asn-Ile-Asp-Phe-Ala-Lys(ac)-NH2 | cleavage after the arginine residue |  | 
AcSer-Glu-Val-Asn-Leu-Asp-Ala-Glu-Phe-Gly-NH2 (Ac-SEVNLDAEFG-NH2; also: partly isotope-labelled (D in acetyl and a Gly), extent not given here) [Peptide 6] |  |  | H2NleuAspAlaGluPheGlyNH2 | 
Ac-Gly* Ala Ala Phe Lys Arg Ala Gly Ala Ala Lys(Ac*)-NH2 ({Ac-Gly∗}-AAFKRAGAAK(Ac∗)-NH2; reading uncertain; also: isotope labels: Gly* with D2 or H2, Ac* with D3 or H3, printed as Ac-Gly* Ala Ala Phe Lys Arg Ala Gly Ala Ala Lys(Ac*)-NH2) [7(17)] | Ac-Gly-Ala-Ala-Phe-Lys-Arg-OH |  |  | 
AcGly-Pro-Arg-Ala-Ala-Ala-Gly-NH2 (Ac-GPRAAAG-NH2; also: partly isotope-labelled (D in acetyl and a Gly), extent not given here) [Peptide 4] |  |  | AcGlyProArgAlaOH and 239, 241: H2NAlaAlaGlyNH2 | 371, 374: AcGlyProArgOH and H2NalaAlaAlaGlyNH2
Ac-Gly* Ala Phe Leu Ala Arg Asn Ile Asp Leu Lys(Ac*)-NH2 ({Ac-Gly∗}-AFLARNIDLK(Ac∗)-NH2; reading uncertain; also: isotope labels: Gly* with D2 or H2, Ac* with D3 or H3, printed as Ac-Gly* Ala Phe Leu Ala Arg Asn Ile Asp Leu Lys(Ac*)-NH2) [7(13)] |  | cleavage after the arginine residue |  | 
AcHis-His-Gln-Lys-Leu-Val-Phe-Phe-Ala-Gly-NH2 (Ac-HHQKLVFFAG-NH2; also: partly isotope-labelled (D in acetyl and a Gly), extent not given here) [Peptide 10] |  |  | AcHisHisGlnLysLeuOH and 315, 317: NH2PheAlaGlyNH2 | 591, 594 AcHisHisGlnLysOH and H2NleuValPhePheAlaGlyNH2
